Source: publication PMC4234684 (Cellular and molecular life sciences : CMLS, 2014)

Experiment: Michaelis–Menten kinetic analysis with colorimetric substrate nitrocefin
Assay type: biochemical
Settings: PBS, 30 °C, mean ± SEM

B1: Enterobacter chloacae P99 beta-lactamase (protein, UniProt P05364 21-381, looked up)
Beta-lactamase: TPVSEKQLAEVVANTITPLMKAQSVPGMAVAVIYQGKPHYYTFGKADIAANKPVTPQTLFELGSISKTFTGVLGGDAIARGEISLDDAVTRYWPQLTGKQWQGIRMLDLATYTAGGLPLQVPDEVTDNASLLRFYQNWQPQWKPGTTRLYANASIGLFGALAVKPSGMPYEQAMTTRVLKPLKLDHTWINVPKAEEAHYAWGYRDGKAVRVSPGMLDAQAYGVKTNVQDMANWVMANMAPENVADASLKQGIALAQSRYWRIGSMYQGLGWEMLNWPVEANTVVEGSDSKVALAPLPVAEVNPPAPPVKASWVHKTGSTGGFGSYVAFIPEKQIGIVMLANTSYPNPARVEAAYHILEALQ
modifications: C-terminal His6 tag
kcat/Km: 7.5e+06 ± 600000 M⁻¹ s⁻¹
